Reference: paper PMC9618391 (2022)

T1: μ1A (AP1M1) expressed from cDNA in COS-7 cells, Q9BXS5
T1 chain: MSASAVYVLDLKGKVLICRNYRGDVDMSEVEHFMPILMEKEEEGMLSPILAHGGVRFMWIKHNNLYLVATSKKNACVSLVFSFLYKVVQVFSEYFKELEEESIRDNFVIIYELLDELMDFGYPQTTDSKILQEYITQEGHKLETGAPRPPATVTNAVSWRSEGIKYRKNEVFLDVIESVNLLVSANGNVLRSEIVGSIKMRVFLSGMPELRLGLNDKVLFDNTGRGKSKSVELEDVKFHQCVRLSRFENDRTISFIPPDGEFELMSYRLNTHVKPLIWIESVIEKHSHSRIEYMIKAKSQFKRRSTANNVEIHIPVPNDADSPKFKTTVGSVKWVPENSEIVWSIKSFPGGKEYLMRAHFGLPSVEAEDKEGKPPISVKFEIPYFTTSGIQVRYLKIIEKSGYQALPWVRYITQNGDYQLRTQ

B1: wild-type human sodium/iodide symporter (hNIS), Q92911 L562A; L563A (protein)
chain: MEAVETGERPTFGAWDYGVFALMLLVSTGIGLWVGLARGGQRSAEDFFTGGRRLAALPVGLSLSASFMSAVQVLGVPSEAYRYGLKFLWMCLGQLLNSVLTALLFMPVFYRLGLTSTYEYLEMRFSRAVRLCGTLQYIVATMLYTGIVIYAPALILNQVTGLDIWASLLSTGIICTFYTAVGGMKAVVWTDVFQVVVMLSGFWVVLARGVMLVGGPRQVLTLAQNHSRINLMDFNPDPRSRYTFWTFVVGGTLVWLSMYGVNQAQVQRYVACRTEKQAKLALLINQVGLFLIVSSAACCGIVMFVFYTDCDPLLLGRISAPDQYMPLLVLDIFEDLPGVPGLFLACAYSGTLSTASTSINAMAAVTVEDLIKPRLRSLAPRKLVIISKGLSLIYGSACLTVAALSSLLGGGVLQGSFTVMGVISGPLLGAFILGMFLPACNTPGVLAGLGAGLALSLWVALGATLYPPSEQTMRVLPSSAARCVALSVNASGLLDPALLPANDSSRAPSSGMDASRPALADSFYAISYLYYGALGTLTTVLCGALISCLTGPTKRSTLAPGAAWWDLARQTASVAPKEEVAILDDNLVKGPEELPTGNKKPPGFLPTNEDRLFFLGQKELEGAGSWTPCVGHDGGRDQQETNL
B2: wild-type human sodium/iodide symporter (hNIS), Q92911 L587A (protein)
chain: MEAVETGERPTFGAWDYGVFALMLLVSTGIGLWVGLARGGQRSAEDFFTGGRRLAALPVGLSLSASFMSAVQVLGVPSEAYRYGLKFLWMCLGQLLNSVLTALLFMPVFYRLGLTSTYEYLEMRFSRAVRLCGTLQYIVATMLYTGIVIYAPALILNQVTGLDIWASLLSTGIICTFYTAVGGMKAVVWTDVFQVVVMLSGFWVVLARGVMLVGGPRQVLTLAQNHSRINLMDFNPDPRSRYTFWTFVVGGTLVWLSMYGVNQAQVQRYVACRTEKQAKLALLINQVGLFLIVSSAACCGIVMFVFYTDCDPLLLGRISAPDQYMPLLVLDIFEDLPGVPGLFLACAYSGTLSTASTSINAMAAVTVEDLIKPRLRSLAPRKLVIISKGLSLIYGSACLTVAALSSLLGGGVLQGSFTVMGVISGPLLGAFILGMFLPACNTPGVLAGLGAGLALSLWVALGATLYPPSEQTMRVLPSSAARCVALSVNASGLLDPALLPANDSSRAPSSGMDASRPALADSFYAISYLYYGALGTLTTVLCGALISCLTGPTKRSTLAPGLLWWDLARQTASVAPKEEVAILDDNAVKGPEELPTGNKKPPGFLPTNEDRLFFLGQKELEGAGSWTPCVGHDGGRDQQETNL
B3: wild-type human sodium/iodide symporter (hNIS), Q92911 Y118A (protein)
chain: MEAVETGERPTFGAWDYGVFALMLLVSTGIGLWVGLARGGQRSAEDFFTGGRRLAALPVGLSLSASFMSAVQVLGVPSEAYRYGLKFLWMCLGQLLNSVLTALLFMPVFYRLGLTSTAEYLEMRFSRAVRLCGTLQYIVATMLYTGIVIYAPALILNQVTGLDIWASLLSTGIICTFYTAVGGMKAVVWTDVFQVVVMLSGFWVVLARGVMLVGGPRQVLTLAQNHSRINLMDFNPDPRSRYTFWTFVVGGTLVWLSMYGVNQAQVQRYVACRTEKQAKLALLINQVGLFLIVSSAACCGIVMFVFYTDCDPLLLGRISAPDQYMPLLVLDIFEDLPGVPGLFLACAYSGTLSTASTSINAMAAVTVEDLIKPRLRSLAPRKLVIISKGLSLIYGSACLTVAALSSLLGGGVLQGSFTVMGVISGPLLGAFILGMFLPACNTPGVLAGLGAGLALSLWVALGATLYPPSEQTMRVLPSSAARCVALSVNASGLLDPALLPANDSSRAPSSGMDASRPALADSFYAISYLYYGALGTLTTVLCGALISCLTGPTKRSTLAPGLLWWDLARQTASVAPKEEVAILDDNLVKGPEELPTGNKKPPGFLPTNEDRLFFLGQKELEGAGSWTPCVGHDGGRDQQETNL
B4: wild-type human sodium/iodide symporter (hNIS), Q92911 L594A (protein)
chain: MEAVETGERPTFGAWDYGVFALMLLVSTGIGLWVGLARGGQRSAEDFFTGGRRLAALPVGLSLSASFMSAVQVLGVPSEAYRYGLKFLWMCLGQLLNSVLTALLFMPVFYRLGLTSTYEYLEMRFSRAVRLCGTLQYIVATMLYTGIVIYAPALILNQVTGLDIWASLLSTGIICTFYTAVGGMKAVVWTDVFQVVVMLSGFWVVLARGVMLVGGPRQVLTLAQNHSRINLMDFNPDPRSRYTFWTFVVGGTLVWLSMYGVNQAQVQRYVACRTEKQAKLALLINQVGLFLIVSSAACCGIVMFVFYTDCDPLLLGRISAPDQYMPLLVLDIFEDLPGVPGLFLACAYSGTLSTASTSINAMAAVTVEDLIKPRLRSLAPRKLVIISKGLSLIYGSACLTVAALSSLLGGGVLQGSFTVMGVISGPLLGAFILGMFLPACNTPGVLAGLGAGLALSLWVALGATLYPPSEQTMRVLPSSAARCVALSVNASGLLDPALLPANDSSRAPSSGMDASRPALADSFYAISYLYYGALGTLTTVLCGALISCLTGPTKRSTLAPGLLWWDLARQTASVAPKEEVAILDDNLVKGPEEAPTGNKKPPGFLPTNEDRLFFLGQKELEGAGSWTPCVGHDGGRDQQETNL
B5: wild-type human sodium/iodide symporter (hNIS), Q92911 Y120A (protein)
chain: MEAVETGERPTFGAWDYGVFALMLLVSTGIGLWVGLARGGQRSAEDFFTGGRRLAALPVGLSLSASFMSAVQVLGVPSEAYRYGLKFLWMCLGQLLNSVLTALLFMPVFYRLGLTSTYEALEMRFSRAVRLCGTLQYIVATMLYTGIVIYAPALILNQVTGLDIWASLLSTGIICTFYTAVGGMKAVVWTDVFQVVVMLSGFWVVLARGVMLVGGPRQVLTLAQNHSRINLMDFNPDPRSRYTFWTFVVGGTLVWLSMYGVNQAQVQRYVACRTEKQAKLALLINQVGLFLIVSSAACCGIVMFVFYTDCDPLLLGRISAPDQYMPLLVLDIFEDLPGVPGLFLACAYSGTLSTASTSINAMAAVTVEDLIKPRLRSLAPRKLVIISKGLSLIYGSACLTVAALSSLLGGGVLQGSFTVMGVISGPLLGAFILGMFLPACNTPGVLAGLGAGLALSLWVALGATLYPPSEQTMRVLPSSAARCVALSVNASGLLDPALLPANDSSRAPSSGMDASRPALADSFYAISYLYYGALGTLTTVLCGALISCLTGPTKRSTLAPGLLWWDLARQTASVAPKEEVAILDDNLVKGPEELPTGNKKPPGFLPTNEDRLFFLGQKELEGAGSWTPCVGHDGGRDQQETNL
B6: wild-type human sodium/iodide symporter (hNIS), Q92911 L583A (protein)
chain: MEAVETGERPTFGAWDYGVFALMLLVSTGIGLWVGLARGGQRSAEDFFTGGRRLAALPVGLSLSASFMSAVQVLGVPSEAYRYGLKFLWMCLGQLLNSVLTALLFMPVFYRLGLTSTYEYLEMRFSRAVRLCGTLQYIVATMLYTGIVIYAPALILNQVTGLDIWASLLSTGIICTFYTAVGGMKAVVWTDVFQVVVMLSGFWVVLARGVMLVGGPRQVLTLAQNHSRINLMDFNPDPRSRYTFWTFVVGGTLVWLSMYGVNQAQVQRYVACRTEKQAKLALLINQVGLFLIVSSAACCGIVMFVFYTDCDPLLLGRISAPDQYMPLLVLDIFEDLPGVPGLFLACAYSGTLSTASTSINAMAAVTVEDLIKPRLRSLAPRKLVIISKGLSLIYGSACLTVAALSSLLGGGVLQGSFTVMGVISGPLLGAFILGMFLPACNTPGVLAGLGAGLALSLWVALGATLYPPSEQTMRVLPSSAARCVALSVNASGLLDPALLPANDSSRAPSSGMDASRPALADSFYAISYLYYGALGTLTTVLCGALISCLTGPTKRSTLAPGLLWWDLARQTASVAPKEEVAIADDNLVKGPEELPTGNKKPPGFLPTNEDRLFFLGQKELEGAGSWTPCVGHDGGRDQQETNL
B7: wild-type human sodium/iodide symporter (hNIS), Q92911 L121A (protein)
chain: MEAVETGERPTFGAWDYGVFALMLLVSTGIGLWVGLARGGQRSAEDFFTGGRRLAALPVGLSLSASFMSAVQVLGVPSEAYRYGLKFLWMCLGQLLNSVLTALLFMPVFYRLGLTSTYEYAEMRFSRAVRLCGTLQYIVATMLYTGIVIYAPALILNQVTGLDIWASLLSTGIICTFYTAVGGMKAVVWTDVFQVVVMLSGFWVVLARGVMLVGGPRQVLTLAQNHSRINLMDFNPDPRSRYTFWTFVVGGTLVWLSMYGVNQAQVQRYVACRTEKQAKLALLINQVGLFLIVSSAACCGIVMFVFYTDCDPLLLGRISAPDQYMPLLVLDIFEDLPGVPGLFLACAYSGTLSTASTSINAMAAVTVEDLIKPRLRSLAPRKLVIISKGLSLIYGSACLTVAALSSLLGGGVLQGSFTVMGVISGPLLGAFILGMFLPACNTPGVLAGLGAGLALSLWVALGATLYPPSEQTMRVLPSSAARCVALSVNASGLLDPALLPANDSSRAPSSGMDASRPALADSFYAISYLYYGALGTLTTVLCGALISCLTGPTKRSTLAPGLLWWDLARQTASVAPKEEVAILDDNLVKGPEELPTGNKKPPGFLPTNEDRLFFLGQKELEGAGSWTPCVGHDGGRDQQETNL

Target: T1, μ1A (AP1M1) expressed from cDNA in …
Experiment: co-immunoprecipitation with Western blot quantification
Details: chain shown with the change; COS-7 cells cotransfected with hNIS and μ1A; IP α-μ1A, WB α-hNIS; parent: est. 100; read off a plot

Q: B1 was tested. Which percent of parent (% Relative to hNIS WT) did it give?
A: 9

Q: For B2, which percent of parent (% Relative to hNIS WT) is on record?
A: 100

Q: For B3, which percent of parent (% Relative to hNIS WT) is on record?
A: 80

Q: For B4, which percent of parent (% Relative to hNIS WT) is on record?
A: 100

Q: B5 was tested. Which percent of parent (% Relative to hNIS WT) did it give?
A: 65

Q: Which percent of parent (% Relative to hNIS WT) does the source give for B6 here?
A: 60

Q: B7 was tested. Which percent of parent (% Relative to hNIS WT) did it give?
A: 17
